According to publication PMC7368059:

Biological target: full length La Crosse virus L protein (RNA-dependent RNA polymerase) (La Crosse virus (strain LACV/mosquito/1978)) (UniProt A5HC98)
Assay: crystal structure; LACV-L FL with 3' (1-16) and 5' (9-16) vRNA at 5 mg/ml, 5' (1-10) vRNA soaked in; 100 mM Tris pH 8.0, 100 mM NaCl, 8% PEG 4000; space group C2, 4.0 Å; two L protein complexes per asymmetric unit

## full length La Crosse virus L protein (RNA-dependent RNA polymerase) (from UniProt A5HC98 1-2263) (enzyme)
  stoichiometry N: 2
